The results in this text go back to patent publication US20190144537A1 (AVEO PHARMACEUTICALS, published 2019).

By kon is commonly meant a measure of how fast the partners come together. A word on the Kd: it is the equilibrium constant for the complex coming apart. What is called koff is the rate constant with which the complex falls apart.

For assay [1], the target named is T1, recombinant human Notch3 extracellular domain (containing EGF like domains 1-11) Fc fusion protein (human, UniProt Q9UM47 40-467).
T1 construct: Bought from R&D Systems; also called rhNotch3-Fc; Notch3-Fc; not shown: Fc of the bought fusion protein
T1 sequence: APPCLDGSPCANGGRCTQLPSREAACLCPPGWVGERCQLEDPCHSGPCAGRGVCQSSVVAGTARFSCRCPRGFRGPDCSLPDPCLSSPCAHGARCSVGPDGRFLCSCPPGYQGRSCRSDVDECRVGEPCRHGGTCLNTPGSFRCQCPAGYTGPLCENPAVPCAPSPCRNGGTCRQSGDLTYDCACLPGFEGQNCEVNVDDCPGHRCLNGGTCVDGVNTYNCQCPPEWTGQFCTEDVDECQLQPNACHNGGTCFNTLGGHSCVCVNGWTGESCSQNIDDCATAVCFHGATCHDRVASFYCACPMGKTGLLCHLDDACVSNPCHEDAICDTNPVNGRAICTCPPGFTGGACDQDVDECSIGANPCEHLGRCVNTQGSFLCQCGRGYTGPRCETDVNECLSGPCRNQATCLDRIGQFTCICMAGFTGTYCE
The experiment in a line: SPR (Biacore), 28042 captured as ligand, rhNotch3-Fc injected as sample, 25 C, 1:1 binding fit; the same fit is printed under the Notch3 sensorgram as ka 2.720E+5. How it is done: (§1) Rabbit anti-mouse IgGs (GE Healthcare) are immobilized on carboxymethylated dextran CM4 sensor chips (GE Healthcare) by amine coupling, according to a standard protocol. Analyses are performed at 25° C. and 37° C. using PBS containing 0.05% surfactant P20 as running buffer. The antibody is captured in individual flow cells at a flow rate of 10 μL/minute. Injection time is varied for each antibody to yield an R max between 30 and 60 RU. 250 μg/mL human IgG Fc is injected to block non-specific binding of Fc (from the Notch3 fusion protein) to the capture antibody. Buffer or rhNotch1-Fc (R&D Systems, Minneapolis, Minn.; Cat. No. 3647-TK-050), rhNotch2-Fc (R&D Cat. No. 3735-NT-050), and rhNotch3-Fc (R&D Cat. No. 1559-NT-050), diluted in running buffer is injected sequentially over a reference surface (no antibody captured) and the active surface (antibody to be tested) for 240 seconds at 60 μL/minute. The dissociation phase is monitored for up to 1500 seconds. The surface is then regenerated with two 60-second injections of 10 mM Glycine-HCl, pH 2.25, at a flow rate of 30 μL/minute. The rhNotch3-Fc, rhNotch2-Fc, and rhNotch1-Fc concentration range tested are 100 nM to 3.125 nM (2 fold dilution).

The target of assay [2] is T1, recombinant human Notch3 extracellular …. The experiment in a line: SPR (Biacore T100), antibody captured by goat anti-human IgG, rhNotch3-Fc injected, 37° C. How it is done:
(§2) Goat anti-human IgG is immobilized on carboxymethylated dextran CM4 sensor chips (GE Healthcare) by amine coupling, according to a standard protocol. Analyses are performed at 25° C. and 37° C. using PBS containing 0.05% surfactant P20 as running buffer. The antibody is captured in individual flow cells at a flow rate of 10 μl/minute. Injection time is varied for each antibody to yield an R max between 30 and 60 resonance units (RU). 250 μg/mL human IgG Fc is injected to block non-specific binding of Fc (from the Notch3 fusion protein) to the capture antibody. Buffer or rhNotch3-Fc diluted in running buffer is injected sequentially over a reference surface (no antibody captured) and the active surface (antibody to be tested) for 240 seconds at 60 μL/minute. The dissociation phase is monitored for up to 1500 seconds. The surface is then regenerated with two 60-second injections of 10 mM Glycine-HCl, pH 2.25, at a flow rate of 30 μL/minute. The rhNotch3-Fc concentration range tested is 100 nM to 3.125 nM (2 fold dilution).
(§3) Kinetic parameters can be determined using the kinetic function of the BIAevaluation software (GE Healthcare) with double reference subtraction. Kinetic parameters for the antibody, kₐ (association rate constant), kd (dissociation rate constant) and KD (equilibrium dissociation constant) are determined.

The target is the same in assay [3]. The experiment in a line: SPR (Biacore T100), antibody captured by goat anti-human IgG, rhNotch3-Fc injected, 25° C. How it is done: as §2, §3
The target of assay [4] is T2, human Notch3 on the cell surface (human, UniProt Q9UM47 40-2321). The experiment in a line: cell-based or functional assay.
In assay [5] the target is T3, human Notch1 on the cell surface (human, UniProt P46531 19-2555).
T3 construct: whole, on cells; also called cell surface human Notch1; full length human Notch1
In words: FACS on FlpIn CHO cells expressing full length human Notch1, anti-human PE secondary antibody. How it is done: (§4) Full length Notch receptor cDNAs cloned into pcDNA5FRT were transfected into FlpIn™ CHO cells and selected with 600 μg/ml hygromycin (Sigma), according to the manufacturer's protocol. Cell surface expression of Notch receptors is confirmed by FACS analysis using anti-Notch1 PE, anti-Notch2 PE or anti-Notch3 PE control antibodies (Biolegend). […] FACS is performed on a BD FACSCanto II cell analyzer (BD Biosciences) and analyzed using FlowJo software.

The next assay concerns the target T4, cynoNotch3 monomer (cyno).
T4 construct: Only named as 'cynoNotch3 monomer'
The experiment in a line: binding to cynoNotch3 monomer at 25° C., protocol similar to that for hNotch3 (method not named).

The target in assay [6] is T2, human Notch3 on the cell surface. In words: FACS at 4° C. on cells expressing human Notch3, one site binding fit; cell line not stated. From the text: CHO N3 (Flp-In-CHO cells (Invitrogen) stably transfected with human Notch3), HCC2429 cells, and RL-952 cells expressing human Notch3 are washed once with PBS containing calcium chloride and magnesium chloride (Invitrogen) and harvested using cell dissociation buffer (Invitrogen). Cells are washed a second time with PBS and resuspended in FACS buffer (PBS with 0.5% BSA (Sigma-Aldrich)) for a final cell concentration of 250,000 cells per well into a 96-well v-bottom plate. Purified antibodies are diluted in FACS buffer over a concentration range of 100 nM to 0 nM. Cells are then incubated at 4° C. with 100 μL of antibody for one hour, washed with FACS buffer twice, and resuspended in 100 μL of goat-anti mouse PE-conjugated antibody (Jackson Immuno Research). Cells are incubated at 4° C. for 30 minutes in the dark, washed once with FACS buffer, and then analyzed using a Beckman Coulter Cytomics FC 500 instrument. The geometric mean of the florescent intensity then is calculated for each antibody concentration. These values then are entered into Prism software (GraphPad, La Jolla, Calif.) and used to generate a binding curve by plotting geometric mean versus antibody concentration.

For assay [7], the target named is T1, recombinant human Notch3 extracellular …. In words: SPR (Biacore), 28042 captured as ligand, rhNotch3-Fc injected as sample, 25 C, 1:1 binding fit. Here is the method: as §1
For orientation: SPR reads the build-up and loss of mass on a sensor chip optically.

Assay [8] has as its target T5, murine Notch3 on the cell surface (murine, UniProt Q61982 40-2318).
T5 construct: whole, on cells; also called mNotch3; full length murine Notch3
In words: FACS on FlpIn CHO cells expressing full length murine Notch3, 5 ug/ml antibody, anti-human PE secondary antibody. How it is done:
as §4

For assay [9], the target named is T6, human Notch2 on the cell surface (human, UniProt Q04721 26-2471).
T6 construct: whole, on cells; also called cell surface human Notch2; full length human Notch2
The experiment in a line: FACS on FlpIn CHO cells expressing full length human Notch2, anti-human PE secondary antibody. Here is the method: as §4

The target of a further assay is T7, rhNotch1-Fc (human, UniProt P46531 19-1735).
T7 construct: extracellular domain; Bought from R&D Systems; also called R&D Cat. No. 3647-TK-050; not shown: Fc of the bought fusion protein
T7 sequence (P46531 19-1735): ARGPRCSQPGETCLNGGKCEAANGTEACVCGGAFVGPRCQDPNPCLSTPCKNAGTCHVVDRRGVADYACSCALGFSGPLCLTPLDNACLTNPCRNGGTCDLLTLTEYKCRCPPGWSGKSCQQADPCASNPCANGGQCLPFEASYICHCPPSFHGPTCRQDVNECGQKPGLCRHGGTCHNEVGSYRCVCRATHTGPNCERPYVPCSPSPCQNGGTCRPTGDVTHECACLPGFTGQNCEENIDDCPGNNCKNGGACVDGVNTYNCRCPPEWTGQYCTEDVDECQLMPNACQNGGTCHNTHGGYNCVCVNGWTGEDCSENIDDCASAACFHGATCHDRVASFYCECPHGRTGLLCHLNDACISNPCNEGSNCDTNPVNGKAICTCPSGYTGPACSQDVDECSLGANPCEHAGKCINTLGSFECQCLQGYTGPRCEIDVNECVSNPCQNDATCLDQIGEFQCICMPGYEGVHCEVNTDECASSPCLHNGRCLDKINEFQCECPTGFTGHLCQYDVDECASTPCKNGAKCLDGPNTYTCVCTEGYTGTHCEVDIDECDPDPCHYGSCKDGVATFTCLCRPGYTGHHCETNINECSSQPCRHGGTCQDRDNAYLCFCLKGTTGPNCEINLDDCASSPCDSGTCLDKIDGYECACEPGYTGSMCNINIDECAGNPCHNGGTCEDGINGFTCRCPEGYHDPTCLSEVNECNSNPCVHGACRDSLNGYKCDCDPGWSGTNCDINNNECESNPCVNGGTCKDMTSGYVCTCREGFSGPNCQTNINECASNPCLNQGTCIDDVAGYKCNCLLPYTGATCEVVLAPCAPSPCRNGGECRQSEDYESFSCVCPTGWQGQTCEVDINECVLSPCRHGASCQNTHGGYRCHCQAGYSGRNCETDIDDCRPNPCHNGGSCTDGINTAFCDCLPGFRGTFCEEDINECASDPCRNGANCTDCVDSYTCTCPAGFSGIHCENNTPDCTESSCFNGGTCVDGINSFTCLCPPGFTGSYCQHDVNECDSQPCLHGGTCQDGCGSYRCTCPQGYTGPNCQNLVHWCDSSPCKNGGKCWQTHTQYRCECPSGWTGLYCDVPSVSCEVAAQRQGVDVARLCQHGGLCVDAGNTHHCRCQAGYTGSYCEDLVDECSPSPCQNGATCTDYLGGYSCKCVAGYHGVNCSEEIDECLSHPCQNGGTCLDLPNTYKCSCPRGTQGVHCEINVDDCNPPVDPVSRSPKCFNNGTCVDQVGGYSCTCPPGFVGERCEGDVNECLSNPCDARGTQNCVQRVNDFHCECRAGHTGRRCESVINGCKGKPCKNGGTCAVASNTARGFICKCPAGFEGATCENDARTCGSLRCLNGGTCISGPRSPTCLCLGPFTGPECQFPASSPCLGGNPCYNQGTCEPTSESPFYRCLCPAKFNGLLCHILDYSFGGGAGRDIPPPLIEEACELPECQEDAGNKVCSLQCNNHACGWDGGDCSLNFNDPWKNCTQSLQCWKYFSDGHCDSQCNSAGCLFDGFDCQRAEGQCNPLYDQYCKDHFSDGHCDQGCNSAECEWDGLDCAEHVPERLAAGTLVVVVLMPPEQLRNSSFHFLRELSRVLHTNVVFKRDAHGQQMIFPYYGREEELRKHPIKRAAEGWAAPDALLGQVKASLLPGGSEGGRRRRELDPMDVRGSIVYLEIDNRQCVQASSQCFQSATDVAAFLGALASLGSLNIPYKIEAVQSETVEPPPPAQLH
The experiment in a line: SPR (Biacore), 28042 captured as ligand, rhNotch1-Fc as sample, 25 C; software 1:1 fit printed under a sensorgram that stays below about 1.5; the drawn table gives '-' for this pair. Here is the method: as §1

Assay [10] concerns the target T1, recombinant human Notch3 extracellular …. In words: SPR (Biacore), 28042 captured as ligand, rhNotch3-Fc injected as sample, 25 C, 1:1 binding fit; the same fit is printed under the Notch3 sensorgram as kd 2.580E-4. Here is the method: as §1

T5 sequence (Q61982 40-2318): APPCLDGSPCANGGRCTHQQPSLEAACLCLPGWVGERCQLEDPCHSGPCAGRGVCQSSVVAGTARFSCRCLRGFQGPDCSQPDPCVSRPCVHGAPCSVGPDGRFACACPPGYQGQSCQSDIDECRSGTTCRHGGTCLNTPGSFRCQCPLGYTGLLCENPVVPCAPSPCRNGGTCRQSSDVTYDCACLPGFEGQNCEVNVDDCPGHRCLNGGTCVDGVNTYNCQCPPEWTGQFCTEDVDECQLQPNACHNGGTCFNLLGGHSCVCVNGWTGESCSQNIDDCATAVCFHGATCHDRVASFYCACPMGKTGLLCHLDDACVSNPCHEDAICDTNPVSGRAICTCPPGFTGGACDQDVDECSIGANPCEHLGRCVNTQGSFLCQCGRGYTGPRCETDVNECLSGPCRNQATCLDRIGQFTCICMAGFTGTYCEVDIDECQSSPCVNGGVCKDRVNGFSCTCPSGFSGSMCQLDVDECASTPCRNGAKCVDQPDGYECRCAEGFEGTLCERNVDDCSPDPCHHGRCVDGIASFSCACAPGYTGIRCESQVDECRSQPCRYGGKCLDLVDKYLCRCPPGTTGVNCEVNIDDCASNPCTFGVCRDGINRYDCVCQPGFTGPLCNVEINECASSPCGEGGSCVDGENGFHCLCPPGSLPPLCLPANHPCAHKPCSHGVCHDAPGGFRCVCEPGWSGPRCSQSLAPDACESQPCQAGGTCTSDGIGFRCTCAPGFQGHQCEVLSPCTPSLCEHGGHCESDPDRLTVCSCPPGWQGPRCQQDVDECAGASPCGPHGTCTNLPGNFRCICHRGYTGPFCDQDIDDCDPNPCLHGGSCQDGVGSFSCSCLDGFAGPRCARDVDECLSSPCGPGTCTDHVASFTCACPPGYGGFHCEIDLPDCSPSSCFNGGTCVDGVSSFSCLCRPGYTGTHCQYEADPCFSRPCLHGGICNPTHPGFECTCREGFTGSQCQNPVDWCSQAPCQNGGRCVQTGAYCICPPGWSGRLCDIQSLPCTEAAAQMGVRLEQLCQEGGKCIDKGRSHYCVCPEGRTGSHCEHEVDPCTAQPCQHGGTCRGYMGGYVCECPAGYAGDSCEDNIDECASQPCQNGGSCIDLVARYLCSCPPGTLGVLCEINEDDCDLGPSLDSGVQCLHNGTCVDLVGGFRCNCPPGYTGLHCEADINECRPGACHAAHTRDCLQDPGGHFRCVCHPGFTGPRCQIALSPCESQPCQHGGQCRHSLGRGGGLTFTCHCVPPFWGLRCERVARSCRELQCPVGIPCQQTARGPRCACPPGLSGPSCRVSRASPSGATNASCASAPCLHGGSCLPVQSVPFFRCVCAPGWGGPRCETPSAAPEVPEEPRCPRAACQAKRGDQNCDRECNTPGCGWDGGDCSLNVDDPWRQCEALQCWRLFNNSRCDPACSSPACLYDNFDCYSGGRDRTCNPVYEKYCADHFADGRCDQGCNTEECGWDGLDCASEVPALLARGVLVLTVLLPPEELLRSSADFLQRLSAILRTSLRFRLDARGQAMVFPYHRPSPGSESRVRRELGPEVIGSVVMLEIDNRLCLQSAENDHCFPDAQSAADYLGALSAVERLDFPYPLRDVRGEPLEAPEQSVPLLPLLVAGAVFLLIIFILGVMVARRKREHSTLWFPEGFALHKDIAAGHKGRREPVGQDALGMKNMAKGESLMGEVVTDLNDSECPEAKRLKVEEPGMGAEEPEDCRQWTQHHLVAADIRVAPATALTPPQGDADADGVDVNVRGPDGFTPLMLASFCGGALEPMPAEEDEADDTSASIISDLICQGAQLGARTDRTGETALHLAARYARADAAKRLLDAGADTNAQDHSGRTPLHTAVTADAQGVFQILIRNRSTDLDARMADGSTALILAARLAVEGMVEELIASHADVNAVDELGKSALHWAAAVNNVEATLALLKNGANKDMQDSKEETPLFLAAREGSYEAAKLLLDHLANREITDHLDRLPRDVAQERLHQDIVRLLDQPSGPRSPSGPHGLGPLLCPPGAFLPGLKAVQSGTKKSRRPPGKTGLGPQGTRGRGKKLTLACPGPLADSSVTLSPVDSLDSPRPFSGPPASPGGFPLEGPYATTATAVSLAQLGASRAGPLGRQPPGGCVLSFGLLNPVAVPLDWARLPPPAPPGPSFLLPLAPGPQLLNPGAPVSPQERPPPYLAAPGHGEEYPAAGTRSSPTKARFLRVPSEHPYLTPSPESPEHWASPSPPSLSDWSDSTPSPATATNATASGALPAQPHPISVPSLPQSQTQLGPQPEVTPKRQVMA

B1: 28042 antibody (antibody, human IgG1, kappa, V domains shown)
VH: EVQLLESGGGLVQPGGSLRLSCAASGFTFSDYMMSWVRQAPGKGLEWVSWIRSSGGTTLYADSVKGRFTISRDNSKNTLYLQMNSLRAEDTATYYCARVGGGTTGYAFDIWGQGTMVTVSS
VL: DIQMTQSPSSLSASVGDRVTITCRASQSISNYLNWYQQKPGKAPKLLIYGASSLQSGVPSRVSGTGSGTDFTLTISSLQPEDFATYYCQQSYSPSFTFGPGTKVDFER
With B1, the kon came out at 272000 M⁻¹ s⁻¹ in [1], 94700 M⁻¹ s⁻¹ in assay [2], 177000 M⁻¹ s⁻¹ in assay [3] and 104000 M⁻¹ s⁻¹ with rhNotch1-Fc. Besides, the Kd in [2] came to 4.18 nM; in [3], 2.55 nM; in the assay with cynoNotch3 monomer, 806 nM; in assay [6], 2.72 nM; in assay [7], 0.948 nM. The koff in assay [2] worked out at 0.000396 s⁻¹; in [3] it was 0.000299 s⁻¹; with rhNotch1-Fc, 0.000313 s⁻¹; in [10] it was 0.000258 s⁻¹. The “IC50; % inhibition of hJag2-mFc-stimulated RBP-Jk luciferase reporter activity in MDA-MB-468 cells with endogenous human Notch3” value in [4] was 0.53 ug/ml (unit taken from the x axis 'log (ug/ml)'; the table prints none). Also, the “LogIC50; same reporter assay” value in assay [4] is -0.276 log (ug/ml). Also, the binding result was “no binding” in assay [5], “binds” in assay [8] and “no binding” in assay [9].
